According to patent publication EP0691409B1:

Biological target: mutant pro-urokinase (human) (UniProt P00749)
Assay: cell-based or functional assay

activated MMP (ΔA/h^2*1000); time 0 h, 0.15 µM modified pro-urokinase | activated MMP (ΔA/h^2*1000); time 1 h | activated MMP (ΔA/h^2*1000); time 2 h | activated MMP (ΔA/h^2*1000); time 3 h | activated MMP (ΔA/h^2*1000); time 4 h | activated MMP (ΔA/h^2*1000); time 6.5 h | activated MMP (ΔA/h^2*1000); time 24 h | activated MMP (ΔA/h^2*1000); time 31 h | activated MMP (ΔA/h^2*1000); time 48 h | activated MMP (ΔA/h^2*1000); time 48 h + EDTA | not activated MMP (ΔA/h^2*1000); time 0 h, 0.15 µM modified pro-urokinase | not activated MMP (ΔA/h^2*1000); time 1 h | not activated MMP (ΔA/h^2*1000); time 2 h | not activated MMP (ΔA/h^2*1000); time 3 h | not activated MMP (ΔA/h^2*1000); time 4 h | not activated MMP (ΔA/h^2*1000); time 6.5 h | not activated MMP (ΔA/h^2*1000); time 24 h | not activated MMP (ΔA/h^2*1000); time 31 h | not activated MMP (ΔA/h^2*1000); time 48 h | not activated MMP (ΔA/h^2*1000); time 48 h + EDTA | Substance
< 0.05 ΔA/h^2·1000 | 0.3 ΔA/h^2·1000 | < 0.05 ΔA/h^2·1000 | < 0.05 ΔA/h^2·1000 | 1.1 ΔA/h^2·1000 | 1.3 ΔA/h^2·1000 | 3.6 ΔA/h^2·1000 | 35.9 ΔA/h^2·1000 | 48.9 ΔA/h^2·1000 | < 0.05 ΔA/h^2·1000 |  |  |  |  |  |  |  |  |  |  | mixture of human MMP2 and MMP9, activated with APMA
 |  |  |  |  |  |  |  |  |  | < 0.05 ΔA/h^2·1000 | < 0.05 ΔA/h^2·1000 | < 0.05 ΔA/h^2·1000 | < 0.05 ΔA/h^2·1000 | < 0.05 ΔA/h^2·1000 | < 0.05 ΔA/h^2·1000 | 1 ΔA/h^2·1000 | 2.1 ΔA/h^2·1000 | 14 ΔA/h^2·1000 | < 0.05 ΔA/h^2·1000 | mixture of human MMP2 and MMP9, not activated
